# Results taken from publication PMC3164098 (2011).
# Ends that are not written are not given here.
# T1: 12/1 peptide
# T1 chain: MPRFMDYWEGLN-NH2
# Biological target: T1, 12/1 peptide
# Assay: ITC
binder,measurement,value
MDM2 18-125 (protein) QIPASEQETLVRPKPLLLKLLKSVGAQKDTYTMKEVLFYLGQYIMTKRLYDEKQQHIVYCSNDLLGDLFGVPSFSVKEHRKIYTMIYRNLVVVNQQESSDSGTSVSEN,Kd,240 nM
